According to patent US20090291081A1 (AbbVie / Abbott, published 2009):
Changes are numbered by the printed parent chain. Each block holds one binder with its values, some of them ahead of it.

Target: T1, human IL-1α (human, UniProt P01583 113-271)
T1 construct: also called IL-1alpha; hIL-1α
T1 sequence (looked up): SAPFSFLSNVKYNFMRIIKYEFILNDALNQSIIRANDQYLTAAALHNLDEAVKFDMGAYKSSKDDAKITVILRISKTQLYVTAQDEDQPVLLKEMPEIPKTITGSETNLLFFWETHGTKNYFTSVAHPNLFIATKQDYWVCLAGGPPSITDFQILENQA
Experiment: Table 62 IC50; RBA presumed

IC50: 0.2 nM
B1: ABT1-95-87 (other)
VL: DIQMTQSPSSLSASVGDRVTITCRASQPIVRNLRWYQQKPGKAPKLLIYSSSRLEPGVPSRFSGSGSGTDFTLTISSLQPEDFATYHCQQGYRWPVTFGQGTKVEIKR
notes: VK dAb

IC50: < 0.1 nM
B2: ABT1-95-111 (other)
VL: B1 VL with R53Y, P56D
notes: VK dAb

IC50: > 10 nM
B3: ABT1-95-129 (other)
VL: B1 VL with R53Y, Q79H, F83L
notes: VK dAb

IC50: 20 nM
B4: ABT1-141-27 (other)
VL: DIQMTQSPSSLSASVGDRVTITCRASQWIQKQLAWYQQKPGKAPKLLIYSSSYLQSGVPSRFSGSGSGTDFTLTISSLQPEDFATYYCQQGLRQPMTFGQGTKVEIKR
notes: VK dAb

IC50: 0.1 nM
B5: ABT1-95-96 (other)
VL: B1 VL with T22A
notes: VK dAb

IC50: 0.1 nM
B6: ABT1-95-159 (other)
VL: B1 VL with V30A, R53Y, G91V
notes: VK dAb

IC50: > 10 nM
B7: ABT1-95-154 (other)
VL: B1 VL with Y49S, R53Y
notes: VK dAb

IC50: > 1000 nM
B8: ABT1-154 (other)
VL: DIQMTQSPSSLSASVGDRVTITCRASTEIVRNLRWYQQKPGKAPKLLISGVSGLQSGVPSRFSGSGSGTDFTLTISSLQPEDFATYYCVQGYSWPVTFGQGTKVEIKR
notes: VK dAb

IC50: 0.2 nM
B9: ABT1-95-114 (other)
VL: B1 VL with R53Y, P56V
notes: VK dAb

IC50: 0.2 nM
B10: ABT1-95-140 (other)
VL: B1 VL with P28G, R53Y
notes: VK dAb

IC50: 0.1 nM
B11: ABT1-95-93 (other)
VL: B1 VL with R53I, S65G
notes: VK dAb

IC50: 0.1 nM
B12: ABT1-95-112 (other)
VL: B1 VL with R53Y, P56N
notes: VK dAb

IC50: 0.2 nM
B13: ABT1-95-151 (other)
VL: B1 VL with S26G, R53Y, G99D
notes: VK dAb

IC50: 0.5 nM
B14: ABT1-95-108 (other)
VL: B1 VL with R53Y, P56E
notes: VK dAb

IC50: 10 nM
B15: ABT1-95-157 (other)
VL: B1 VL with Y49T, R53Y, T69A
notes: VK dAb

IC50: 0.5 nM
B16: ABT1-95-158 (other)
VL: B1 VL with Y49F, R53Y
notes: VK dAb

IC50: 0.1 nM
B17: ABT1-95-127 (other)
VL: B1 VL with R53Y, S76G, V96I
notes: VK dAb

IC50: 10 nM
B18: ABT1-95-155 (other)
VL: B1 VL with Y49T, R53Y, F83S
notes: VK dAb

IC50: 300 nM
B19: ABT1-160 (other)
VL: B8 VL with K45N, S49W, V51G, G53T, W94L
notes: VK dAb

IC50: 0.8 nM
B20: ABT1-95-152 (other)
VL: B1 VL with S26G, V30P, R53Y
notes: VK dAb

IC50: 0.5 nM
B21: ABT1-95-142 (other)
VL: B1 VL with V30T, R53Y
notes: VK dAb

IC50: 0.2 nM
B22: ABT1-95-147 (other)
VL: B1 VL with R24W, P28G, R53Y
notes: VK dAb

IC50: > 1 nM
B23: ABT1-95-130 (other)
VL: B1 VL with R53Y, H87Y, R93L
notes: VK dAb

IC50: 30 nM
B24: ABT1-141-10 (other)
VL: B4 VL with G91S, Q94V, M96F
notes: VK dAb

IC50: 0.1 nM
B25: ABT1-95-123 (other)
VL: B1 VL with R53Y, R93A
notes: VK dAb

IC50: 3 nM
B26: ABT1-141-54 (other)
VL: B4 VL with Y53H, G91H, Q94V
notes: VK dAb

IC50: 0.5 nM
B27: ABT1-95-90 (other)
VL: B1 VL with R53Q
notes: VK dAb

IC50: 0.1 nM
B28: ABT1-95-110 (other)
VL: B1 VL with R53Y, P56A
notes: VK dAb

IC50: 0.3 nM
B29: ABT1-95-89 (other)
VL: B1 VL with R53L
notes: VK dAb

IC50: 10 nM
B30: ABT1-95-143 (other)
VL: B1 VL with Y49T, R53Y
notes: VK dAb

IC50: 0.8 nM
B31: ABT1-95-98 (other)
VL: B1 VL with R53A
notes: VK dAb

IC50: 0.3 nM
B32: ABT1-95-95 (other)
VL: B1 VL with T5I, R53Q
notes: VK dAb

IC50: 0.2 nM
B33: ABT1-95-150 (other)
VL: B1 VL with P28H, R53Y
notes: VK dAb

IC50: 0.1 nM
B34: ABT1-95-120 (other)
VL: B1 VL with V30A, R53Y, G91V
notes: VK dAb

IC50: 80 nM
B35: ABT1-131 (other)
VL: DIQMTQSPSSLSASVGDRVTITCRASQRINGNLRWYQQKPGKAPKLLIYSVSQLQSGVPSRFSGSGSGTDFTLTISSLQPEDFATYYCQQGYDWPPTFGQGTKVETKR
notes: VK dAb

IC50: 0.1 nM
B36: ABT1-95-94 (other)
VL: B1 VL with R53S
notes: VK dAb

IC50: 0.2 nM
B37: ABT1-95-124 (other)
VL: B1 VL with R53Y, R93M
notes: VK dAb

IC50: 0.8 nM
B38: ABT1-95-146 (other)
VL: B1 VL with P28N, R53Y
notes: VK dAb

IC50: 0.5 nM
B39: ABT1-95-144 (other)
VL: B1 VL with R53Y, E55S
notes: VK dAb

IC50: 0.8 nM
B40: ABT1-95-145 (other)
VL: B1 VL with R18H, R53Y, E55V
notes: VK dAb

IC50: 0.2 nM
B41: ABT1-95-125 (other)
VL: B1 VL with R53Y, V96L
notes: VK dAb

IC50: 10 nM
B42: ABT1-141-35 (other)
VL: B4 VL with S51A, Y53W, G91H, Q94V
notes: VK dAb

IC50: 0.1 nM
B43: ABT1-95-106 (other)
VL: B1 VL with R53Y, P56R, T97A
notes: VK dAb

IC50: 10 nM
B44: ABT1-95-156 (other)
VL: B1 VL with Y49A, R53Y, Q89L
notes: VK dAb

IC50: 0.3 nM
B45: ABT1-95-91 (other)
VL: B1 VL with R53N
notes: VK dAb

IC50: 0.5 nM
B46: ABT1-95-153 (other)
VL: B1 VL with V30I, R53Y, D70G
notes: VK dAb

IC50: 0.5 nM
B47: ABT1-95-101 (other)
VL: B1 VL with I48V, R53L
notes: VK dAb

IC50: 1 nM
B48: ABT1-95-141 (other)
VL: B1 VL with V30L, R53Y
notes: VK dAb

IC50: > 1 nM
B49: ABT1-95-128 (other)
VL: B1 VL with R53Y, V96G
notes: VK dAb

IC50: 0.8 nM
B50: ABT1-95-126 (other)
VL: B1 VL with R53Y, V96S
notes: VK dAb

IC50: 200 nM
B51: ABT1-137 (other)
VH: EVQLLESGGGLVQPGGSLRLSCAASGFTFERYWMAWVRQAPGKGLEWVSNINLTGSATYYADSVKGRFTISRDNSKNTLYLQMNSLRAEDTAVYYCAKGAFQFDYWGQGTLVTVSS
notes: VH dAb

IC50: 300 nM
B52: ABT1-157 (other)
VL: DIQMTQSPSSLSASVGDRVTITCRASQSISSYLNWYQQKPGKAPKLLIGGVSGLQSGVPSRFSGSGSGTDFTLTISSLQPEDFATYYCMQWSRPPRTFGQGTKVEIKR
notes: VK dAb

IC50: > 1000 nM
B53: ABT1-167 (other)
VL: B52 VL with V51L, S92W, P94Y, R96P
notes: VK dAb

IC50: > 1000 nM
B54: ABT1-171 (other)
VL: B52 VL with V51R, S92F
notes: VK dAb

IC50: > 1000 nM
B55: ABT1-166 (other)
VL: B52 VL with V51L, M89G, S92A, P94A, R96M
notes: VK dAb

IC50: > 1000 nM
B56: ABT1-168 (other)
VL: B52 VL with V51L, M89L, S92F, R93S, P94E, R96A
notes: VK dAb

IC50: > 1000 nM
B57: ABT1-170 (other)
VL: B52 VL with V51R, M89K, S92Y, P94Y, R96S
notes: VK dAb
